Residue numbers refer to the chain shown, from its start.
B1: C057 (antibody, V domains shown)
VH: QVQLVQSGAEVKRPGASVKLSCKASGYIFTDYSIHWVRQAPGQGLEWMGWVNPNSGGGNSAQKFMDWVTMARDTSITTVYMELSRLRSDDTAVYYCARGPLFHKLVYDSWSGYHDGFDIWGQGTMVTVSS
VL: QSALTQPASVSGSPGQSITISCTGTSSDVGAYKFVSWYQQHPGKAPQLIIYEVSNRPSGVSNRFSGSKSGNTASLTISGLQAEDEADYYCSSYTNASTWVFGGGTELTVL
B2: C062 (antibody, V domains shown)
VH: EVQLVESGGGLVKPGGSLRLTCAASGFTFSTYSMNWVRQAPGKGLEWVSSISSSSSYIYYADSVKGRFTISRDNAKNSLYLQMNSLRAEDTAVYYCARERGYYGGKTPPFLGGQGTLVTVSS
VL: NFMLTQPHSVSESPGKTVTISCTGSSGSIASNYVQWYQQRPGSAPTTVIYEDNQRPSGVPDRFSGSIDSSSNSASLTISGLKTEDEADYYCQSYDSSNYWVFGGGTKLTVL
B3: C060 (antibody, V domains shown)
VH: EVQLVESGGGLVQPGGSQRLSCAASGFTVSSNYMSWIRQAPGKGLEWVSVIYSGGSAYYVDSVKGRFTISRDNSKNTLYLQMNSLRPEDTAVYYCARIANYMDVWGKGTTVTVSS
VL: EIVMTQSPATLSVSPGERATLSCRASQSVSSHLAWYQQKPGQAPRLLIYGASTRATGIPTRFSGSGSGTEFTLTISSLQSEDFAVYYCQQYNNWPPLTFGGGTKVEIK
B4: C059 (antibody, V domains shown)
VH: QVQLVQSGAEVKKPGASIKVSCKASGYTFTDYSMHWVRQAPGQGLEWMGWINPNSGGTKYAQKFQGWVTMTRDMSITTVYMELTRLRSDATAVFYCARGPLFHKLVYDSWTGYHDGFDIWGQGTMVTVSS
VL: QSALTQPASVSGSPGQSITISCTGTSSDVGGYNYVSWYQHYPGKAPKLMIYEVTHRPSGVSNRFSGSKSGNTASLTISGLQAEDEADYYCSSSTNSSTWVFGGGTKMTVL
B5: C089 (antibody, V domains shown)
VH: QVQLVESGGGVVQPGRSLRLSCAASGFTFRTYAMHWVRQAPGKGLEWVAVILSDGNNKYYADSVKGRFTISRDNSKNTLYLQMNSLRAEDTAIFYCAREQEANYYDISGYYHWGESLGYWGQGTLVTVSS
VL: DIQLTQSPSFLSASVGDRVTITCRASQGISSYLAWYQQKPGKAPKLLIYGASTLQSGVPSRFSGSGSGTEFTLTISSLQPEDFASYYCQKVNSHPPGLTFGGGTKVEIK
B6: C574 (antibody, V domains shown)
VH: QVQLVQSGAEVKKPGASVKVSCKASGYTFTSYGFSWVRQAPGQGLEWLGWISAYNGNTNYAQKLQGRVTMTTDTSTSTAYMELRSLRSDDTAVYYCARAIAVAGTSGEFDYWGQGTLVTVSS
VL: not shown
B7: C566 (antibody, V domains shown)
VH: QVQLQESGPGLVKSSQTLSLNCSVFGASISSGGYYWTWIRQHPGKGLEWIGYIHYRGTYYNPSLKSRVTMSVDTSKNQFSLKVRSVSAADTAIYYCARAIVVVTLNWFDLWGQGTLVTVSS
VL: NFMLTQPHSVSESPGKTVTISCSGSGGSIASNYVQWYQQRPGSAPTAVIYEDNQRPSGVPDRFSGSIDSSSNSASLTISGLKTEDEADYYCQSYDTSNPVIFGGGTKLTV
B8: C565 (antibody, V domains shown)
VH: EVQLVESGGGLIQPGGSLRLSCAASGLIVSSNYMNWVRQAPGKGLEWVSLLYSGGSTYYADSVKGRFTISRDNSKNTLYLQMNSLRPEDTAVYYCARDLSVVGAFDIWGQGTMVTVSS
VL: EIVLTQSPGTLSLSPGERATLSCRASQSLPSTYLAWYQQKRGQAPRLLIYGASSRATGIPDRFSGSGSGTDFTLTISRLEPEDFAVYYCQQYGTSPRVTFGPGTKVDIK
B9: C569 (antibody, V domains shown)
VH: QVQLVESGGNVVQPGRSLRLSCAASGFTFSNYGMHWIRQAPGKGLEWVAVISYDGSDKYYADSVKGRVTISRDNSKNTLYLQMNSLRAEDTAVYYCAKGGPYGDHVRSDYWGLGTLVTVSS
VL: DIQMTQSPSSLSASVGDRVTITCQASQDISNYLNWYQQKPGKVPKLLIYDASNLETGVPSRFSGSGSGTDFTFTISSLQPEDIATYYCQQFHNLPLTFGQGTKLEIK
B10: C596 (antibody, V domains shown)
VH: QVQLVESGGGVVQPGRSLRLSCAASGITFSHYGMHWVRQAPGKGLEWVALISSDGSKKYYADSVKGRFTISRDNSKSTLYLQMNSLRAEDTAIYYCAKDLGYYYGPPYGPDYWGQGTLVTVSS
VL: DIQMTQSPSSLSASVGDRVTITCQASQDVSNSLNWYQQKPGKAPKLLIYDASNLETGVPSRFSGSGSGTDFSFTISSLQPEDIATYYCLQYDNFSMYTFGQGTKLEIK
B11: C594 (antibody, V domains shown)
VH: QVQLVESGGGVVQPGRSLRLSCAASGFTFSSYGMHWVRQAPGKGLEWVAVISDDGSNKYYADSVKGRFTISRDNSKNTLYLQMNSLRAEDTAVYYCAKSWWLSENWFDPWGQGTLVTVSS
VL: EIVMTQSPATLSVSPGERATLSCRASQSVSSNLAWYQQKPGQAPRLLIYGASTRATGIPARFSGTGSGTEFTLTISSLQSEDFAVYYCQQYNNWPLTFGGGTKVEIK
B12: C595 (antibody, V domains shown)
VH: B11 VH with P14A, Y32F, M34L, S56A, E89D, V93K
VL: B11 VL with S30R, T65S, E70D
B13: C570 (antibody, V domains shown)
VH: QVQLQESGPGLVKPSETLSLTCTVSGASISSYYWSWIRQPPGKGLEWIGYIYYSGSTNYNPSLKSRVTISLDTSKNQFSLQLSSVTAADTAVYYCATYYFDNSGYSYGLDVWGQGTTVTVSS
VL: DIQMTQSPSSLSASVGDRVTIACRASQSISSYLHWYQQQPGKAPKLLIYAVTNLQSGVPSRFSGSGSGTDFTLTISSLQPEDFATYYCQQSYSLPQTFGQGTKVEIK
B14: C573 (antibody, V domains shown)
VH: QVQLQESGPGLVKPSGTLSLTCAVSGGSISTVNWWSWVRQPPGKGLEWIGEIHHSGNTNHNPSLRSRVTISVDKSKNQFSLKLRSVTAADTAVYYCARDGGRPGDAFDLWGQGTMVTVSS
VL: QSALTQPASVSGSPGQSITISCTGTSSDVGGYNYVSWYQQHPGKVPKVMIYDVSNRPSGISNRFSGSKSGNTASLTISGLQAEDEADYYCNSYRSNSTRVFGTGTKVTV
B15: C578 (antibody, V domains shown)
VH: QVQLVESGGGVVQPGRSLRLSCAASGFTFSSSGMHWVRQAPGKGLEWVAIISYDGSNKYYADSVKGRFTISRDNSKNTLSLQMNSLRAEDTAVYYCAKDPLPFRDFFYYYMDVWGKGTTVTVSS
VL: QSALTQPASVSGSPGQSITISCTGTSSDVGGYNYVSWYQQHPGKAPKLMIYDVSNRPSGVSNRFSGSKSGNTASLTISGLQAEDEADYYCSSYTSSSTLGVFGTGTKVTVL
B16: C572 (antibody, V domains shown)
VH: EVQLVESGGGLIKPGRSLRLSCTASGFTFGDYAMTWFRQAPGKGLEWVGFIRSKAYGGTTGYAASVKYRFTISRDDSKSIAYLQMDSLKTEDTAVYYCTRWDGWSQHDYWGQGTLVTVSS
VL: DIVMTQSPLSLSVTPGEPASISCRSSQSLLHSNGNNYFDWYLQKPGQSPQLLIYLASNRASGVPDRFSGSGSGTDFTLKISRVEAEDVGVYYCMQVLQIPYTFGQGTKLEI
B17: C577 (antibody, V domains shown)
VH: QVQLVQSGAEVKKPGSSVKVSCKASGDTFSIYAFSWVRQAPGQGLQWMGAIIPLLGTTNYAQKFLGRVTITADESTSTTFMELSSLTSEDTAVYHCATFHVAYGDYIPFDSWGQGTLVIVSS
VL: not shown
B18: C580 (antibody, V domains shown)
VH: EVQLVQSGAEVKKAGESLKISCNSSGYSFTNYWIAWVRQVPGKGLEWMGIIYLGDSDTRYSPSFQGRVTISADKSISAAYLHWSSLKASDTAIYYCARGGPPGGVKLELTDFWGQGTLVTVSS
VL: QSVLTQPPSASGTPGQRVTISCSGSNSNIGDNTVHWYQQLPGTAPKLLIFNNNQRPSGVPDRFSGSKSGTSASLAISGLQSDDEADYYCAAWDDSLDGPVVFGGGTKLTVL
B19: C581 (antibody, V domains shown)
VH: EVQLVQSGAEVKKPGESLKISCKGSGYRFTSYWIAWVRQMPGKGLEWMGIIYPGDSDTRYSPSFQGQVTISADQSISTAYLQWSSLKASDTAMYYCARGGPPGGVKLELTDYWGQGALVTVSS
VL: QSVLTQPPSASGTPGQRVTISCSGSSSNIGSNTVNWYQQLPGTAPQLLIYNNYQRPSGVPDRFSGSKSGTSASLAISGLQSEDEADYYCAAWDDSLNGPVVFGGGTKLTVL
B20: C567 (antibody, V domains shown)
VH: QVQLQESGPGLVKPSETLSLTCTVSGGSVINGSYYWSWIRQPPGKGLEWIGFVYYSGSTNYNPSLKSRVTISVDTSKNQFSLNLNSVTAADTAVYYCATGSKSSYYFDYWGQGTLVTVSS
VL: QSVLTQPPSVSAAPGQKVTISCSGSSSNIGNNYVSWYQQLPGAAPKLLIYENNMRPSGIPDRFSGSKSGTSATLGITGLQTGDEADYYCGTWDSSLSVPYVFGTGTRVTVL
B21: C591 (antibody, V domains shown)
VH: QVQLVQSGAEVKKPGASVKVSCKASGYILTDYFIHWVRQAPGQGLEWMGWINPNSGGTNYAQKFQGRVTMTRDTSISTAYMELSRLRSDDTAVYHCARYKGTTVNTNYYYGMDVWGQGTTVTVSS
VL: not shown
B22: C592 (antibody, V domains shown)
VH: B21 VH with I28T, L29F, I34N, Y60S, S77T, A79V, H95Y
VL: SYELTQPPSVSVSPGQTASITCSGDKLRNKYACWYQQKAGQSPMLVIYQDTKRPSGIPERFSGSNSGNTATLTISGTQAMDEADYYCQAWDISTVVFGGGTKLTVL
B23: C593 (antibody, V domains shown)
VH: QVQLVQSGAEVKKPGASVKVSCKASGYTFTSYDINWVRQAPGQGLEWMGWMNPNSGNTDYAQKFQGRFTMTRNTSISTAYMELSSLRSEDTAVYYCASRRWDPLTFYYYMVVWGKGTTVTVSS
VL: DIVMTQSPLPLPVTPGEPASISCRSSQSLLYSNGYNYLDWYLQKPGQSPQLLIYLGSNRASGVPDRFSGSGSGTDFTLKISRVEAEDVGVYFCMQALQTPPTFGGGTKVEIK
B24: C576 (antibody, V domains shown)
VH: QVQLVQSGAEVKKPGSSVKVSCKASGGTFSIYAISWVRQAPGQGLEWMGGIIPILGTANYAQKFQGRVTITADESTSTAYMELSSLRSEDTAVYYCASFHVAYGDYIPFDYWGQGTLVTVSS
VL: not shown
B25: C568 (antibody, V domains shown)
VH: QVQLVQSGAEVKKPGASVKVSCTASGYTFSSYYIHWVRQAPGQGLEWMGIINPGAGSTSYAQKFQGRVAMTTDTSTRTVYMELSSLRSDDTAVYYCARDEAFLPSAIFVGDYWGQGTLVTVSS
VL: DIQMTQSPSSLSASVGDRVTITCRASQGIRNDLGWYQQKPGKAPKRLIYAASNLQSGVPSRFSGSGSGTEFTLTISSLQPEDFATYYCLQHSTYPHTWTFGQGTKVEIK

Each binder was assayed against SARS-CoV-2 receptor binding domain (RBD), wild type (SARS-CoV-2, UniProt P0DTC2 319-539) (assay: ELISA, RBD protein coated, mAb titrated).

Binder | EC50 [ng/mL]
B1 | 2.31
B2 | 4.69
B3 | 43.5
B4 | 1.88
B5 | 4.69

The binders below were run against SARS-CoV-2 spike receptor binding domain (RBD), wild type (SARS-CoV-2, UniProt P0DTC2 319-539) (assay: ELISA, RBD protein coated, mAb titrated).

Binder | EC50 [ng/mL]
B6 | 8.12
B7 | 5.88
B8 | 1.27
B9 | 11.1
B10 | 21
B11 | 2.63
B12 | 2.04
B13 | 0.74
B14 | 2.2
B15 | 1.08
B16 | 2.9
B17 | 1.32
B18 | 1.81
B19 | 1.58
B20 | 18.9
B21 | 3.83
B22 | 6
B23 | 4.36
B24 | 5.29
B25 | 5.99

From US20220195015A1 (published 2022)
